For this assay, the target named is T1, AD-T (UniProt P03070 87-708).
T1 construct: Commercial Y2H control prey; also called control prey
The assay is described as follows: yeast two-hybrid in Y2H Gold; growth on QDO and colour on QDO/X/A.

B1: BD-Lam (other)
chain: MKLLSSIEQACDICRLKKLKCSKEKPKCAKCLKNNWECRYSPKTKRSPLTRAHLTEVESRLERLEQLFLLIFPREDLDMILKMDSLQDIKALLTGLFVQDNVNKDAVTDRLASVETDMPLTLRQHRISATSSSEESSNKGQRQLTVSSEEVVSREVSGIKAAYEAELGDARKTLDSVAKERARLQLELSKVREEFKELKARNTKKEGDLIAAQARLKDLEALLNSKEAALSTALSEKRTLEGELHDLRGQVAKLEAALGEAKKQLQDEMLRRVDAENRLQTMKEELDFQKNIYSEELRETKRRHETRLVEID
notes: Commercial Y2H negative control bait; also called negative control bait
Consider B1, for which the binding result is “no binding”.

Source of the values: patent US20220186239A1 (NINGBO UNIVERSITY, published 2022).
